Measured values reported in patent publication US20220177587A1, “METHODS AND USES OF VARIANT CD80 FUSION PROTEINS AND RELATED CONSTRUCTS” (Alpine Immune Sciences, Inc., priority 2018, published 2022).
Numbering of substitutions follows the chain as printed. Numbers in names are those of the source. One block for each molecule: values may come before it.

Key:
[1] = molecular target: huPD-L1 (Homo sapiens, UniProt Q9NZQ7); test: Flow binding to CHO cells stably expressing PD-L1; set-up: huCTLA4 and huPD-L1, full-length mammalian surface expression constructs were generated; expressed in transfected cells; host or cells: CHO cells, lentiviral transduction, sorted to >98% purity; conditions: CHO cells stably expressing PD-L1
Method: (§1) Binding of selected immunomodulatory fusion proteins to cognate binding partners was assessed. […] Cells were sorted in a Bio-Rad S3 Cell Sorter (Bio-Rad Corp., USA) to >98% purity. Jurkat/IL2 reporter cells, which endogenously express CD28, were used to detect binding to CD28.
(§2) For staining and analysis by flow cytometry, 100,000 cells of appropriate transfected cells were plated in 96-well round bottom plates. Cells were spun down and resuspended in staining buffer (phosphate buffered saline (PBS), 1% bovine serum albumin (BSA), and 0.1% sodium azide) for 20 minutes to block non-specific binding. […] Primary staining was performed on ice for 45 minutes, before washing cells in staining buffer twice. Phycoerythrin (PE)-conjugated anti-human Fc (Jackson ImmunoResearch, USA) was diluted 1:150, added to cells and incubated another 30 minutes on ice. Cells were then washed twice with 150 μL/well stain buffer, fixed in 2% formaldehyde/PBS, and analyzed on Intellicyt flow cytometer (Intellicyt Corp., USA). PE Mean Fluorescence Intensity (MFI) was calculated for each cell type with FlowJo Version 10 software (FlowJo LLC, USA).
(§3) Binding assays were carried out to assess the specificity and affinity of multivalent proteins to cell-expressed CTLA-4, CD28, and PD-L1 counter structures.
(§4) The EC50 for binding also was determined.

[2] = molecular target: CD28 (Homo sapiens, UniProt P10747); test: Jurkat/IL2 + CHO/OKT3 +/- PD-L1 reporter assay: PD-L1-dependent CD28 costimulation; assay type: cell-based; set-up: host or cells: Jurkat cells expressing an IL-2-luciferase reporter; conditions: Jurkat/IL2 + CHO/OKT3/PD-L1
Method: Jurkat cells were then plated at 50 μL/well for a total of 100,000 cells per well.
To each well, 25 μL of test protein was added to the Jurkat cells. […] The Jurkat cells with test or control proteins were incubated for 15 minutes at room temperature. CHO-derived artificial antigen presenting cells (aAPC) displaying transduced cell surface anti-CD3 single chain Fv (OKT3) (i.e., no PD-L1), or OKT3 and PD-L1 (i.e., +PD-L1), were brought to 0.8×10^6 cells/mL, and 25 μL of cells were added to each well, bringing the final volume of each well to 100 μL. […] Jurkat cells and CHO cells were incubated for 5 hours at 37 degrees Celsius in a humidified 5% CO2 incubation chamber. Plates were then removed from the incubator and acclimated to room temperature for 15 minutes. 100 μL of a cell lysis and luciferase substrate solution (BioGlo luciferase reagent, Promega) were added to each well and the plates were incubated on an orbital shaker for 10 minutes. Luminescence was measured with a 1 second per well integration time using a BioTek Cytation luminometer, and a relative luminescence value (RLU) was determined for each test sample.

[3] = molecular target: huCTLA4 (Homo sapiens, UniProt P16410); test: Flow binding to CHO cells stably expressing CTLA4; set-up: huCTLA4 and huPD-L1, full-length mammalian surface expression constructs were generated; expressed in transfected cells; host or cells: CHO cells, lentiviral transduction, sorted to >98% purity; conditions: CHO cells stably expressing CTLA4
Method: as §1, §2, §3, §4

Chain of huPD-L1 (Q9NZQ7 19-290): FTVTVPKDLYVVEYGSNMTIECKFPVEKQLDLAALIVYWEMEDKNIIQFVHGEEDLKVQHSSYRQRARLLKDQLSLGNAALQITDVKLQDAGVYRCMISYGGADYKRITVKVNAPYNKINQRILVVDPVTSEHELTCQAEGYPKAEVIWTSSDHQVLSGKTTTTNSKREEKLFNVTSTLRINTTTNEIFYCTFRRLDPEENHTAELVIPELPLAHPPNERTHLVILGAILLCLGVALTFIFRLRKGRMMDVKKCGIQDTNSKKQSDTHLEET
Chain of huCTLA4 (P16410 36-223): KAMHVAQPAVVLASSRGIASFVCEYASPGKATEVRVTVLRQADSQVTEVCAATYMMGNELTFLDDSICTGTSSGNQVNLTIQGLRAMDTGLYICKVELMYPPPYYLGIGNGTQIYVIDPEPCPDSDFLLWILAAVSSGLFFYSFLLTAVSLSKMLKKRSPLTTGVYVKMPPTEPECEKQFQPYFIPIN

Relative Luciferase Units (RLU), CD80 Conc 5.0 nM ([2]; Table E21, CD80 Conc 5.0 nM): 654 RLU
B3: D46V/M47L/V68M/L85Q (protein)
chain: VIHVTKEVKEVATLSCGHNVSVEELAQTRIYWQKEKKMVLTMMSGVLNIWPEYKNRTIFDITNNLSIMILALRPSDEGTYECVVQKYEKDAFKREHLAEVTLSVKAD

Fold Increase over WT CD80-IgV-Fe ([2]; Table E24, 5.0 nM): 5.4
Relative Luciferase Units (RLU), CD80 Conc 5.0 nM ([2]; Table E24, 5.0 nM): 916 RLU
B5: H181/A26P/E35D/M47V/V68M/A71G (protein)
chain: B3 chain with H18I, A26P, E35D, V46D, L47V, A71G, Q85L

PD-L1 MFI at 33.3 nM ([1]; Table E19, 33.3 nM): 23666
Relative Luciferase Units (RLU), CD80 Conc 5.0 nM ([2]; Table E21, CD80 Conc 5.0 nM): 671 RLU
B7: M47V/N48K/V68M/K89N (protein)
chain: B3 chain with V46D, L47V, N48K, Q85L, K89N

CTLA4 MFI at 33.3 nM ([3]; Table E19, 33.3 nM): 19129
PD-L1 MFI at 33.3 nM ([1]; Table E19, 33.3 nM): 11464
B8: N48K/V68M/K89N (protein)
chain: B3 chain with V46D, L47M, N48K, Q85L, K89N

CTLA4 MFI at 33.3 nM ([3]; Table E19, 33.3 nM): 49711
B10: D46V/M47L (protein)
chain: B3 chain with M68V, Q85L

Relative Luciferase Units (RLU), CD80 Conc 5.0 nM ([2]; Table E21, CD80 Conc 5.0 nM): 841 RLU
B11: E35D/M47V/V68M (protein)
chain: B3 chain with E35D, V46D, L47V, Q85L

Fold Increase over WT CD80-IgV-Fe ([2]; Table E13, 5.0 nM): 3.0
Relative Luciferase Units (RLU), CD80 Cone 5.0 nM ([2]; Table E13, 5.0 nM): 1203 RLU
B21: E35D/M47V/N48K/V68M/L85M (protein, UniProt P33681 35-288, looked up, variant E35D M47V N48K V68M L85M)
T-lymphocyte activation …: VIHVTKEVKEVATLSCGHNVSVEELAQTRIYWQKDKKMVLTMMSGDVKIWPEYKNRTIFDITNNLSIMILALRPSDEGTYECVVMKYEKDAFKREHLAEVTLSVKADFPTPSISDFEIPTSNIRRIICSTSGGFPEPHLSWLENGEELNAINTTVSQDPETELYAVSSKLDFNMTTNHSFMCLIKYGHLRVNQTFNWNTTKQEHFPDNLLPSWAITLISVNGIFVICCLTYCFAPRCRERRRNERLRRESVRPV

More lines, now with the values behind:

B1: V22D/E24D/E35D/M47L/V68M/L85M/D90G (protein)
chain: VIHVTKEVKEVATLSCGHNVSDEDLAQTRIYWQKDKKMVLTMMSGDLNIWPEYKNRTIFDITNNLSIMILALRPSDEGTYECVVMKYEKGAFKREHLAEVTLSVKADFPTPSISDFETPTSNIRRIICSTSGGFPEPHLSWLENGEELNAINTTVSQDPETELYAVSSKLDFNMTTNHSFMCLIKYGHLRVNQTFNWNTTKQEHFPDN
modifications: CD80 v384 ECD
PD-L1 MFI at 33.3 nM ([1]; Table E11, 33.3 nM): 19047
Relative Luciferase Units (RLU), CD80 Cone 5.0 nM ([2]; Table E13, 5.0 nM): 963 RLU

B2: E35D/M38I/M43V/M47V/N48R/L85Q (protein)
chain: B3 chain with E35D, M38T, M43V, V46D, L47V, N48R, M68V
CTLA4 MFI at 33.3 nM ([3]; Table E4, 33.3 nM variant CD80 IgV-Fc): 203938

B4: H18Y/A26P/E35D/M47T/V68M/A71G (protein)
chain: B3 chain with H18Y, A26P, E35D, V46D, L47I, A71G, Q85L
Fold Increase over WT CD80-IgV-Fe ([2]; Table E24, 5.0 nM): 4.5
Relative Luciferase Units (RLU), CD80 Conc 5.0 nM ([2]; Table E24, 5.0 nM): 761 RLU

B6: H18Y/E35D/M47V/N48K (protein)
chain: B3 chain with H18Y, E35D, V46D, L47V, N48K, M68V, Q85L
PD-L1 MFI at 33.3 nM ([1]; Table E10, 33.3 nM): 6462
Relative Luciferase Units (RLU), CD80 Cone 5.0 nM ([2]; Table E12, 5.0 nM): 2146 RLU

B9: E35D/D46V (protein)
chain: B3 chain with E35D, L47M, M68V, Q85L
PD-L1 MFI at 33.3 nM ([1]; Table E19, 33.3 nM): 3971

B12: E35D/M43I/M47L/L85M (protein)
chain: B3 chain with E35D, M43I, V46D, M68V, Q85M
CTLA4 MFI at 33.3 nM ([3]; Table E10, 33.3 nM): 24584
Relative Luciferase Units (RLU), CD80 Cone 5.0 nM ([2]; Table E12, 5.0 nM): 1427 RLU

B13: H18Y/M47L/V68M/A71G (protein)
chain: B3 chain with H18Y, V46D, A71G, Q85L
PD-L1 MFI at 33.3 nM ([1]; Table E20, 33.3 nM): 28478

B14: E35D/M47L/A71G (protein)
chain: B3 chain with E35D, V46D, M68V, A71G, Q85L
CTLA4 MFI at 33.3 nM ([3]; Table E10, 33.3 nM): 20576
Relative Luciferase Units (RLU), CD80 Cone 5.0 nM ([2]; Table E12, 5.0 nM): 1954 RLU

B15: T13R/Q27L/Q33L/E35D/T41S/M47V/N48KN68M/L85M (protein)
chain: B3 chain with T13R, Q27L, Q33L, E35D, T41S, V46D, L47V, N48K, Q85M
Fold Increase over WT CD80-IgV-Fe ([2]; Table E13, 5.0 nM): 0.4
Relative Luciferase Units (RLU), CD80 Cone 5.0 nM ([2]; Table E13, 5.0 nM): 170 RLU

B16: H18Y/E35D/M47L/A71G (protein)
chain: B3 chain with H18Y, E35D, V46D, M68V, A71G, Q85L
Relative Luciferase Units (RLU), CD80 Conc 5.0 nM ([2]; Table E22, CD80 Conc 5.0 nM): 1387 RLU

B17: H18Y/E35D/V68M/A71G/R94Q/E95V (protein, UniProt P33681 35-288, looked up, variant H18Y E35D V68M A71G R94Q E95V)
T-lymphocyte activation …: B21 T-lymphocyte activation … with H18Y, V47M, K48N, A71G, M85L, R94Q, E95V
modifications: Fc fusion
CTLA4 MFI at 33.3 nM ([3]; Table E11, 33.3 nM): 18281
CTLA4 MFI at 33.3 nM ([3]; Table E16, consensus variants, 33.3 nM): 19396
Relative Luciferase Units (RLU), CD80 Cone 5.0 nM ([2]; Table E13, 5.0 nM): 183 RLU
Relative Luciferase Units (RLU), CD80 Cone 5.0 nM ([2]; Table E17, consensus variants, 5.0 nM): 1968 RLU

B18: T13R/E35D/M47L/V68M (protein, UniProt P33681 35-288, looked up, variant T13R E35D M47L V68M)
T-lymphocyte activation …: B21 T-lymphocyte activation … with T13R, V47L, K48N, M85L
Fold Increase over WT CD80-IgV-Fe ([2]; Table E13, 5.0 nM): 2.6
Relative Luciferase Units (RLU), CD80 Cone 5.0 nM ([2]; Table E13, 5.0 nM): 1021 RLU

B19: E35D/D46E/M47L/V68M/A71G/Y87C/K93R (protein, UniProt P33681 35-288, looked up, variant E35D D46E M47L V68M A71G Y87C K93R)
T-lymphocyte activation …: B21 T-lymphocyte activation … with D46E, V47L, K48N, A71G, M85L, Y87C, K93R
Relative Luciferase Units (RLU), CD80 Cone 5.0 nM ([2]; Table E13, 5.0 nM): 1198 RLU

B20: H18V/A26N/E35D/M47V/V68M/A71G (protein, UniProt P33681 35-288, looked up, variant H18V A26N E35D M47V V68M A71G)
T-lymphocyte activation …: B21 T-lymphocyte activation … with H18V, A26N, K48N, A71G, M85L
PD-L1 MFI at 33.3 nM ([1]; Table E23, CD80 IgV-Fc (inert) at 33.3 nM): 68165
Relative Luciferase Units (RLU), CD80 Conc 5.0 nM ([2]; Table E24, 5.0 nM): 985 RLU
